# Source: patent publication US6500431B1, “Inhibitors of angiogenesis and tumor growth” (University of Southern California, priority 1998, dated 2002)
# “Also recorded” adds a separate entry of the source.
# Columns and labels:
# [1] = tested on: endothelial cells (HUVEC); test: Growth inhibition of endothelial cells; assay type: cell-based
# Description: FIG. 1D: Activity of n-terminus decapeptide (DVCQDCIQMV; SEQ ID NO 21).
# FIG. 1E: Activity of N-terminus pentapeptide (DVCQC; SEQ ID NO: 28).
# (§1) By SDS-PAGE, the bacterial product was smaller than the eukaryotic protein. Because prokaryotically expressed proteins are not glycosylated, the difference in molecular weights probably represents the presence of carbohydrate in the eukaryotic protein. Recombinant proteins were then tested in KS, endothelial and control cell lines. Activity was found only in KS cell lines and endothelial cells.
# KS cell lines = test: Activity of recombinant Prosaposin chains on growth of KS cell lines; assay type: cell-based; conditions: FIG. 1
# Description: In order to determine whether recombinant Saposin B has anti-angiogenic activity, the coding region of each of the Prosaposin chains was amplified from fibroblast cell lines and cloned into both bacterial (pGEX-KG) and eukaryotic (pcDNA 3.1His A) expression vectors.
# The PCR products were digested with the respective restriction enzymes and the restriction products were inserted into the pGEX-KG vector for bacterial expression. pGEX-KG vector comprises a glutathione S transferase (GST)-tag at the […] of the insertion site so that a GST-fusion protein is expressed. The GST-tag is used to aid in purification of the recombinant protein. After elution from a glutathione-Sepharose 4B column, the GST-tagged proteins were incubated with thrombin (4 μg/ml) for 4 hr at room temperature (22-25° C.) in 50 mM Tris, pH 8.3, 3 mM CaCl2, 150 mM NaCl to cleave GST from the fusion protein. Free GST was removed from the preparation by passing the digested fusion protein through the glutathione-Sepharose 4B column.
# as §1
# KS Y-1 tumor = test: Established KS tumors in mice; assay type: in vivo
# Description: FIG. 5: Effect of two daily doses of Saposin B on growth of an established KS Y-1 tumor. The arrow marks initiation of daily subcutaneous dosing.
# In further experiments, KS tumors were allowed to grow for five days before treatment with Saposin B (1 and 5 mg/kg daily at a distal site from the timor). In control mice, tumors grew to a weight of 555±mg. […] Tumors excised at the conclusion of the experiments were also examined for apoptosis, blood vesel density, andmitotic index. […] Thus, contrary to the results in vitro, Saposin B has an inhibitory effect against non-KS tumors.
# KS Y-1 cells = test: KS cell migration assay, fibronectin-coated transwell; assay type: cell-based; conditions: chemotaxis induced by VEGF or bFGF
# Description: (§2) The assays were done in double chamber wells separated by […] membrane. Chemotaxis was induced by bFGF (25 ng/mL) in the lower chamber. Endothelial cells or KS cells (5×10^4/mL) were placed in the upper chamber in the presence and absence of test polypeptides. Taxol at 10 ng/mL was used as a known inhibitor of migration. Cell migration across the membrane was quantitated after an overnight incubation.
# (§3) Angiogenesis is mediated by complex biochemical processes including degradation of the basement membrane under existing blood vessel endothelial cells, followed by proliferation and migration of endothelial cells, followed by formation of capillary loops, and recruitment of vascular smooth muscle cells to encase the newly formed vessels and provide stability. KS and endothelial cell migration in the presence of Saposin B was studied in transwell culture plates with 8 μm pore membranes (Costar, Cambridge, Mass.).
# Briefly, wells were coated with fibronectin (25 μg/mL) overnight, and endothelial cells or KS cells were plated in the upper chamber with 100 μL of DMEM/0.4% FCS. 500 μL of DMEM/0.4% FCS was added to the lower chamber and incubated at 37° C. for one hour. The test polypeptides, at various concentrations, were added to the upper chamber, and chemotactic agents (VEGF or bFGF at 20 ng/mL) were added to the lower cell-culture chambers. The plates were incubated for 5 hr at 37° C. and the cells crossing the fibronectin-coated membrane were counted after wiping the cells off the membrane in the upper chamber with a cotton swab.
# The cells that traversed the membrane were fixed with Diff-Quik stain according to the manufacturer's instruction (Dade Diagnostics Inc., Aguada, PR). The cells were counted under a microscope at 320× in four randomly selected fields. The experiments were done in duplicate and repeated at least three times.
# endothelial cells = test: Endothelial cell migration assay, fibronectin-coated transwell; assay type: cell-based; conditions: chemotaxis induced by VEGF or bFGF
# Description: as §2
# as §3, with “KS and endothelial cell migration in the presence of Saposin B was studied in transwell culture plates with 8 μm pore membranes (Costar, Cambridge, Mass.).” left out
# Briefly, wells were coated with fibronectin (25 μg/mL) overnight, and endothelial cells or KS cells were plated in the upper chamber with 100 μL of DMEM/0.4% FCS. […] The plates were incubated for 5 hr at 37° C. and the cells crossing the fibronectin-coated membrane were counted after wiping the cells off the membrane in the upper chamber with a cotton swab.
# The cells that traversed the membrane were fixed with Diff-Quik stain according to the manufacturer's instruction (Dade Diagnostics Inc., Aguada, PR). The cells were counted under a microscope at 320× in four randomly selected fields. […]
# [2] = tested on: CD34+ cord blood derived cells; test: Viability of CD34+ cord blood derived cells; assay type: cell-based, human
# Description: However in the presence of Saposin B, CD34^+/Flk-1^+ progenitor […] was inhibited.
# Saposin B was found not to be toxic to most CD34^+ cord blood derived cells, since the difference in viability of Saposin B treated CD34^+ cells was only around 20% when compared to control cells. Thus Saposin B not only targets fully differentiated and activated endothelial cells, but also a circulating progenitor, previously shown to target angiogenic sites.
# [3] = tested on: Lewis lung carcinoma, melanoma (B16), T-cell lymphoma (EL-4), KS Y-1; test: Syngeneic tumors in C57BL/6 mice, KS Y-1 in nude mice; assay type: in vivo; conditions: 2.5 mg/kg the day following implantation; two weeks
# Description: FIG. 4: Inhibition of tumor growth in mice. C57BL/6 mice were implanted with Lewis lung carcinoma, melanoma (B16), and T-cell lymphoma (EL4). KS Y-1 was implanted in nude mice as a positive control. One day after implantation 2.5 mg/kg of Saposin B was injected into the mice subcutaneously.
# To determine whether this anti-tumor effect was reproducible with different classes of syngeneic tumors, C57BL/6 mice were implanted with Lewis lung carcinoma, melanoma (B16), and T-cell lymphoma (EL-4) cell lines. KS Y-1 was implanted into nude mice for a positive control. The day following tumor implantation, 2.5 mg/kg of Saposin B was administered intraperitoneally. Tumor size was measured three times a week for two weeks at which time the mice were sacrificed for analysis. […] See, FIG. 4
# KS-SLK or KS Y-1 cells = test: KS-SLK or KS Y-1 tumors in nude mice; assay type: in vivo; conditions: daily subcutaneous 1, 10 and 20 mg/kg after one week of tumor development
# Description: In order to determine the anti-angiogenic activity of the recombinant Saposin B, tumor cells were implanted in immuno-deficient mice and treated with either Saposin B or buffer alone.
# Nude mice were injected with 2×10^6 KS-SLK or KS Y-1 cells subcutaneously in a total volume of 100 μL. After one week of tumor development, the mice were injected subcutaneously daily with either PBS or Saposin B at concentrations of 1, 10 and 20 mg/kg for a total protein concentration of […]. The tumor size was measured three times a week. The results represent the median of 4 mice in each group.
molecule,measurement,setting,value
"Saposin B: polypeptide fragment of Prosaposin (positions 190 to 269), SEQ ID NO:2; recombinantly expressed (protein) GDVCQDCIQMVTDIQTAVRTNSTFVQALVEHVKEECDRLGPGMADICKNYISQYSEIAIQMMMHMQPKEICALVGFCDEVK",growth inhibition of endothelial cells,"[1]; FIG. 1, 1D, 1E",dose dependent growth inhibition
same,growth inhibition of proliferating versus quiescent endothelial cells (HUVEC),[1]; FIG. 1B,Only proliferating and not quiescent endothelial cells (HUVEC) show dose dependent growth inhibition
same,growth inhibition of KS cells,KS cell lines,dose dependent growth inhibition
same,apoptosis in excised tumors,KS Y-1 tumor; 1 and 5 mg/kg daily,increase in apoptosis
same,blood vessel density in excised tumors,KS Y-1 tumor; 1 and 5 mg/kg daily,decrease in blood vessel density
same,weights of excised tumors relative to controls,"KS Y-1 tumor; treatment from day five, 1 and 5 mg/kg daily at a distal site",approximately 23%
same,inhibition of KS cell migration,KS Y-1 cells,compete inhibition of cell migration
same,inhibition of endothelial cell migration,endothelial cells,compete inhibition of cell migration; also recorded: inhibited endothelial cell migration
same,difference in viability of treated CD34+ cells compared to control cells,[2],around 20%
same,tumor growth,[3],profound inhibition of tumor growth
same,tumor growth,KS-SLK or KS Y-1 cells,markedly retarded
